Source: PMC7367201, “G-quadruplexes offer a conserved structural motif for NONO recruitment to NEAT1 architectural lncRNA”

Tests used:
[1] = biological target: T1, NONO(53-312) (UniProt Q15233 53-312); test: EMSA; annealed with 100 mM KCl; NONO(53-312) EMSA: 20 mM HEPES pH 7.5, 5.7 mM Tris-HCl, 113 mM KCl, 10% glycerol, 62 mM L-proline, 1% EMPIGEN BB, 0.12 mM EDTA, 4 C 1 h, 10 nM RNA; full-length: 20 mM HEPES pH 7.4, 11 mM Tris, 105 mM KCl, 14% glycerol, 40 mM glycine, 0.2 mM EDTA, 0.5 mM DTT, 0.5% BSA, 25 C; pulldown: 10 mM HEPES pH 7.0, 200 mM KCl, 1% Triton X-100, 1 mM MgCl2, 1 mM DTT, 4 C, washes to 1.6 M KCl; details: protein: recombinant; tags: His tag removed by TEV; chain copies: 2; label: 3' Cy5; intramolecular G4, annealed with 100 mM KCl
T1 sequence: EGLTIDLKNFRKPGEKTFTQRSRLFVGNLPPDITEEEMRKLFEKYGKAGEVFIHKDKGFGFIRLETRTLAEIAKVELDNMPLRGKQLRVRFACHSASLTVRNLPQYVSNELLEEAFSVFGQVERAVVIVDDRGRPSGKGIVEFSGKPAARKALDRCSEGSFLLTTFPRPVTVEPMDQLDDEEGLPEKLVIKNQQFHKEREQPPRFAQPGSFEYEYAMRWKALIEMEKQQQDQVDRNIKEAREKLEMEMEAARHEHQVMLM

[2] = biological target: T2, NONO full-length (UniProt Q15233 1-471); test: EMSA; annealed with 100 mM KCl; complex retained in wells; NONO(53-312) EMSA: 20 mM HEPES pH 7.5, 5.7 mM Tris-HCl, 113 mM KCl, 10% glycerol, 62 mM L-proline, 1% EMPIGEN BB, 0.12 mM EDTA, 4 C 1 h, 10 nM RNA; full-length: 20 mM HEPES pH 7.4, 11 mM Tris, 105 mM KCl, 14% glycerol, 40 mM glycine, 0.2 mM EDTA, 0.5 mM DTT, 0.5% BSA, 25 C; pulldown: 10 mM HEPES pH 7.0, 200 mM KCl, 1% Triton X-100, 1 mM MgCl2, 1 mM DTT, 4 C, …; details: protein: commercial; tags: MYC/DDK; chain copies: 2; label: 3' Cy5; intramolecular G4, annealed with 100 mM KCl
T2 sequence: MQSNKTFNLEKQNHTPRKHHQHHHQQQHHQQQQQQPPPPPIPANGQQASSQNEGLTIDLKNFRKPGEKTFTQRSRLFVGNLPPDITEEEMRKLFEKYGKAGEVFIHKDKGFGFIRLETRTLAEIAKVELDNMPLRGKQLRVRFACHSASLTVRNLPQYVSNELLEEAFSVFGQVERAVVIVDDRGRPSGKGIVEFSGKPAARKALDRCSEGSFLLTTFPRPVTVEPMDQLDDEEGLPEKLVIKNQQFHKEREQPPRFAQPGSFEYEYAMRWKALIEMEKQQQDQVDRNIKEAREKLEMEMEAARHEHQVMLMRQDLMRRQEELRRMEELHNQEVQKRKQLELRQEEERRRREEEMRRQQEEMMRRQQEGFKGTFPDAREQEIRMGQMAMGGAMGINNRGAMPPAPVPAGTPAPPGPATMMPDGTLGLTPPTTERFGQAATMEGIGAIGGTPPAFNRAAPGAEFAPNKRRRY

[3] = biological target: T1, NONO(53-312); test: competition; vs labelled NEAT1_22619 G4, 1-200x excess; NONO(53-312) EMSA: 20 mM HEPES pH 7.5, 5.7 mM Tris-HCl, 113 mM KCl, 10% glycerol, 62 mM L-proline, 1% EMPIGEN BB, 0.12 mM EDTA, 4 C 1 h, 10 nM RNA; full-length: 20 mM HEPES pH 7.4, 11 mM Tris, 105 mM KCl, 14% glycerol, 40 mM glycine, 0.2 mM EDTA, 0.5 mM DTT, 0.5% BSA, 25 C; pulldown: 10 mM HEPES pH 7.0, 200 mM KCl, 1% Triton X-100, 1 mM MgCl2, 1 mM DTT, 4 C, …; details: protein: recombinant; tags: His tag removed by TEV; chain copies: 2; label: none; intramolecular G4
[4] = biological target: T1, NONO(53-312); test: competition; vs labelled NEAT1_22619 G4, 1-200x excess; no significant competition; NONO(53-312) EMSA: 20 mM HEPES pH 7.5, 5.7 mM Tris-HCl, 113 mM KCl, 10% glycerol, 62 mM L-proline, 1% EMPIGEN BB, 0.12 mM EDTA, 4 C 1 h, 10 nM RNA; full-length: 20 mM HEPES pH 7.4, 11 mM Tris, 105 mM KCl, 14% glycerol, 40 mM glycine, 0.2 mM EDTA, 0.5 mM DTT, 0.5% BSA, 25 C; pulldown: 10 mM HEPES pH 7.0, 200 mM KCl, 1% Triton X-100, 1 …; details: protein: recombinant; tags: His tag removed by TEV; chain copies: 2; label: none; annealed with 100 mM KCl

Binder | binding result [1] | binding result [3] | also measured
GGGAGGGAGGGAGGG (structured_RNA) [NEAT1_22619 G-quadruplex] | binds |  | binding result [2]: binds
GGGAGGGAGGGAGGG (structured_RNA) [NEAT1_22619 G-quadruplex competitor] |  | binds | 
GGGGCCGGGGCCGGGGCCGGGGCC (structured_RNA) [(GGGGCC)4 G-quadruplex] | binds |  | 
GGGGCCGGGGCCGGGGCCGGGGCC (structured_RNA) [(GGGGCC)4 G-quadruplex competitor] |  | binds | 
AAAAAGGUAAG (ssRNA) [5'-Splice Site RNA] |  |  | binding result [4]: no binding
